Laboratory results from paper PMC12154015, “A Novel Approach for the Activity Assessment of L-Asparaginase Formulations When Dealing with Complex Biological Samples” (International Journal of Molecular Sciences, 2025).

Tests used:
Assay in all cases: purified protein
purified protein [1] = substrate: Cc1cc(=O)oc2cc(NC(=O)C[C@H](N)C(=O)O)ccc12; assay type: biochemical, Rhodospirillum rubrum; conditions: 37 °C, pH 7.4, table heading says in bovine serum, [S]0 = 1 mM
purified protein [2] = substrate: NC(=O)C[C@H](N)C(=O)O; assay type: biochemical, Rhodospirillum rubrum; conditions: PBS 0.01 M, pH 7.4, 37 °C, [S]0 = 10 mM
purified protein [3] = substrate: NC(=O)C[C@H](N)C(=O)O; conditions: PBS 0.01 M, pH 7.4, 37 °C, [S]0 = 10 mM
purified protein [4] = substrate: Cc1cc(=O)oc2cc(NC(=O)C[C@H](N)C(=O)O)ccc12; assay type: biochemical, Escherichia coli; conditions: 37 °C, pH 7.4, table heading says in bovine serum, [S]0 = 1 mM

B1: RrA; Rhodospirillum rubrum type I L-ASNase (Rhodospirillum rubrum ATCC 11170) (protein)
chain: MAVSPSPLRIFTAGGTIDKDYRLEENGLVVGDPFVAEVLKTARLAGAVSIVALSRKDSLDFTEADREAIGRAVGQAVEDHILLTHGTDTMVETARYLGGLPELAGKTVVLSGAMVPGRVGGSDAAFNIGFACAAALMLAPGVYIAMHGKVFDPAKTRKNRGLGRFEPIDDQE
notes: recombinant, native (unconjugated); 172 residues, monomer 18 kDa; tetramer/dimer
Km (purified protein [1]): 4000 ± 300 µM
Km (purified protein [2]): 4000 ± 300 µM

B2: EcA; E. coli L-ASNase (Veropharm) (Escherichia coli K-12) (protein)
chain: LPNITILATGGTIAGGGDSATKSNYTVGKVGVENLVNAVPQLKDIANVKGEQVVNIGSQDMNDNVWLTLAKKINTDCDKTDGFVITHGTDTMEETAYFLDLTVKCDKPVVMVGAMRPSTSMSADGPFNLYNAVVTAADKASANRGVLVVMNDTVLDGRDVTKTNTTDVATFKSVNYGPLGYIHNGKIDYQRTPARKHTSDTPFDVSKLNELPKVGIVYNYANASDLPAKALVDAGYDGIVSAGVGNGNLYKSVFDTLATAAKTGTAVVRSSRVPTGATTQDAEVDDAKYGFVASGTLNPQKARVLLQLALTQTKDPQQIQQIFNQY
notes: commercial native enzyme (Veropharm), unconjugated; monomer 37 kDa, 348 residues as printed (precursor length); tetramer
Km (purified protein [3]): 20 ± 3 µM
Km (purified protein [4]): 20 ± 3 µM
